Results published in PMC5119889.
Each block holds one substance with its values, some of them ahead of it.

How the values were obtained:
[1] = biological target: α1A-tubulin (α-Tubulin-CT) 399-451 (UniProt Q71U36); assay: GST pull-down, anti-His blot; details: sites S245
[2] = biological target: polymerized microtubules from Cos7 lysate; assay: tubulin cosedimentation assay, band densitometry of immunoblots; details: pre-cleared lysates of Cos7 cells expressing FLAG tagged GIV-WT or SD mutant; n = 3; parent: est. 0.90; read off a plot

binding against the reference ([1]; reference: His-GIV-NT WT, not phosphorylated): gained
Substance: GIV (Girdin) 1-440 (from UniProt Q3V6T2) His-GIV-NT WT phosphorylated by AMPK

other: Ratio of GIV (Pellet:Supernatant) [2]: 2
Substance: GIV-FLAG WT, full length human GIV (from UniProt Q3V6T2) S245D

binding against the reference ([1]; reference: wild type, AMPK-treated): lost
Substance: GIV (Girdin) 1-440 (from UniProt Q3V6T2) S245A, AMPK-treated
